Tests used:
[1] = molecular target: T1, biotinylated histone H3 peptide trimethylated at lysine 27, H3K27me3 (21-44) (UniProt P68431 22-45, trimethyl-lysine at K27; biotinylated); experiment: peptide microspot array; apparent Kd; 10 uM H3K27me3; replicate 1
[2] = molecular target: T1, biotinylated histone H3 peptide …; experiment: peptide microspot array; apparent Kd; 10 uM H3K27me3; replicate 2
[3] = molecular target: T1, biotinylated histone H3 peptide …; experiment: peptide microspot array; apparent Kd; 10 uM H3K27me3; replicate 3
[4] = molecular target: T1, biotinylated histone H3 peptide …; experiment: peptide microspot array; apparent Kd; 20 uM H3K27me3; replicate 2
[5] = molecular target: T1, biotinylated histone H3 peptide …; experiment: peptide microspot array; apparent Kd; 20 uM H3K27me3; replicate 3
[6] = molecular target: T1, biotinylated histone H3 peptide …; experiment: peptide microspot array; apparent Kd; 50 uM H3K27me3; replicate 1
[7] = molecular target: T1, biotinylated histone H3 peptide …; experiment: peptide microspot array; apparent Kd; 50 uM H3K27me3; replicate 2

B1: PcTF, monovalent Polycomb-based transcription factor (pET28 construct, purified from E. coli) (designed binder)
chain: MELSAVGERVFAAEALLKRRIRKGRMEYLVKWKGWSQKYSTWEPEENILDARLLAAFEERER
- Kd [1]: 1.54 µM
- Kd [2]: 1.55 µM
- Kd [3]: 7.6 µM
- Kd [4]: 5.66 µM
- Kd [5]: 6.45 µM
- Kd [6]: 3.5 µM
- Kd [7]: 7.73 µM

Reference: patent US20190248848A1 (published 2019)
